# In a protein production outcome set (Wang et al. 2014):
# Assay: label from the status in PepcDB records
row,Sequence,protein production
1,MIEAIAIAIAVLGAVLLLILFARIRAVDAELKLKKHRAKDAGLADLLNYAAVVDDGVIVGKNGSFMAAWLYKGDDNASSTEEQREMVSFRINQALAGLGNGWMVHVDAVRRPAPNYSERGVSSFPDSVSFAIDEERRRLFEGLGAMFEGYFVLTVTWFPPVLAQRKFVELMFDDDAVAPDHTARTTGLIAQFKREITSLESRLSSAVKMTRLRGQKVVSEEGREVTHDDFLSWLQFCVTGLHHPVMLPSNPMYLDAVIGGQELWGGVVPKIGRKFIQVVAIEGFPLESTPGVLSALAELPSEYRWSSRFIFMDQHESLKHLDKFRKKWKQKIRGFFDQVFNTNTGSINQDAAAMVGDAEAAIAEVNSGLVAAGYYTSVVVLMDEDRERLAASALLVEKAVNRLAFAARIETINTLDAYLGSLPGHGVENVRRPLINTMNLADLLPTSSIWTGSATAPCPMYPPLSPALMHCVTVGATPFRLNLHVRDLGHTFMFGPTGAGKSTHLGIIAAQLRRYAGMSIYAFDKGMSMYPLAAGIRAATKGKSGLHFTVAADDDRLAFCPLQFLETKGDRAWAMEWIDTILALNGVNTTPAQRNEIGNAIMSMHASGARTLSEFSVTIQDEAIREAIKQYTVDGSMGHLLDAEEDGLSLSDFTVFEIEELMNLGEKFALPVLLYLFRRIERALKGQPSVIILDEAWLMLGHPAFRAKIREWLKVLRKANCLVLMATQSLSDAANSGILDVIVESTATKIFLPNVYARDEDTSALYRRMGLNARQIEILATAIPKRQYYYVSENGRRLYDLALGPMALAFVGASDKESVATIKSLEAKFGHEWVHEWLAGRGLNLNDYLEAA,failed
2,MVKDRQIQKTKVAIYNAFISLLQENDYSKITVQDVIGLANVGRSTFYSHYESKEVLLKELCEDLFHHLFKQGRDVTFEEYLVHILKHFEQNQDSIATLLLSDDPYFLLRFRSELEHDVYPRLREEYITKVDIPEDFLKQFLLSSFIETLKWWLHQRQKMTVEDLLKYYLTMVER,not failed
3,VTDILREIGMIARALDSISNIEFKELSLTRGQYLYLVRVCENPGIIQEKIAELIKVDRTTAARAIKRLEEQGFIYRQEDASNKKIKRIYATEKGKNVYPIIVRENQHSNQVALQGLSEVEISQLADYLVRMRKNVSEDWEFVKKGNTRNY,not failed
4,MVVNESMYQLGSVRSAIRELFEYGKKRAAIVGKENVYDFSIGNPSIPAPQIVNDTIKELVTDYDSVALHGYTSAQGDVETRAAIAEFLNNTHGTHFNADNLYMTMGAAASLSICFRALTSDAYDEFITIAPYFPEYKVFVNAAGARLVEVPADTEHFQIDFDALEERINAHTRGVIINSPNNPSGTVYSEETIKKLSDLLEKKSKEIGRPIFIIADEPYREIVYDGIKVPFVTKYYDNTLVCYSYSKSLSLPGERIGYVLVPDEVYDKAELYAAVCGAGRALGYVCAPSLFQKMIVKCQGATGDINAYKENRDLLYEGLTRIGYHCFKPDGAFYMFVKALEDDSNAFCEKAKEEDVLIVAADGFGCPGWVRISYCVDREMIKHSMPAFEKIYKKYNK,not failed
5,MTWLLIFASLAYVIFLFAVATWGDRLGSWANKISHKPVVYSMSLAIYCTSWTYYGAVGNAAVDGWAFFPILLGPILLFLFGIRILEKLVSVSKQQNITSIADFISSRFGKRRRLAVAVTAIAAVAIIPYIALQLKAVGISFAVLTESSGVMAQFSIKELGAAALMAIFAMLFGTRHVEVTEYRSGMILAIAVESMIKLVALLAAGVFAWFLIQGDAQSDLFSSFSDATKPQWSFAAFGEFEFIVQTLMAAGAILCLPRQFHVAVVDNVDVRHLRTARWGFPLYLALTAAAIVPIAIAGTFYLSATTDGSTFALQLPLLKDQLWLSLVIFIGGISAATAMVIIASVTLSTMITNDVIMPILLQRESRLPLKHRRREYDRALLLIRRVAIAVTMVLSFLCYYFWAARTNLVSIGLLAFSLVLQLLPALLAALYWRKGHARGVYAGLAAGSVGWVLAVLIPLYTDLQLTDVEIITRGTVVSLALNCFGFIVFSLLAKPRLVDRIQATAFVKPRAALPDLHFNKNDSATNADMLLLLRTFLGAERAQQLMQYYQRPENTELPLEGVAEKTFISFVERAIAGVLGSATARSLVDAALRDKQLNLEEVVHFFDDTTQALQTQQSILFSSLENLAQGISVVDAELRLVAWNKRYMDLFQYPEGMVKPGQPIATLIRYNAERGECGPGDVDGLVNKRLRYMQLGSAHRFIRRRADGRVIEMVGNPLPTGGFVTSFTDITSHVETQQALEDANIDLEQRVDVRTQEIREINQELTAEIDRRRQVEDELKKAKAEAEATNASKTRFLALASHDILQPLNAARLYLSAIQEKELSERNLSLVGKLDTALGSTEHLLSTLLSIAKMDQGALKPQFRHVQLSSLLEPLVEEYAVLAEQRKLDFRAFYKDRPVYTDPTYLRRIVQNFLSNAIKYTQRGSVLLGVRKRGDELQIAVWDTGPGIAAQQQNKVFDAFYRVQNQTVDGVGLGLSVAQRMGEQLNCDVQVESVEGKGSCFSVRVPLGNAAQVVSRPKKQLEDALSDPLQLIVVDDDNENLSALSALLNKWGCEALTFNRYSKALAYAKAHSQNKAPHGLLLDYQLGDGDGLQLAQELRDIWQQQIPAALVTAMRDDAVKQAARKSGLQFLPKPAKPAALKAFLKYISTRKAGGARS,failed
6,MTHATSTETIHYVNEDGDQVFEDGGGKLDFTRTVTIDDVTNEVVEYGEWTPVTDDEFAAVTSPDKDGYTPDTSEVAAQKPDMTDGPDGTVKDVEVTVTYTANPAVATITYVDDDENGKLEHHHHHH,failed
7,MYIPKYFKVTNAEEIWNFVQENSFGTVVTTEQGKPIATHLPLGFNKKDDHYYITGHFAYGNPQWRTFEACEDVLVMFQGPHAYISSSWYSRENVPTWNYQAVHMYGKASMLEKDELAEELTIMLEQKTPTQAFSVLWDKLSPKLLESELKGIVGFKIKVEDIQAAYKLSQNRNETDYMNVIEQLQNEENPNAKQMAELMEDKLKKQI,not failed
8,MRNVLITGATSGIGLSLVEKYLQAGDKVYACGRNFQAYLKSSSLIDAEKSDKLVKIVFDMNHHDAIIDVLTEVESLDIAILNAGTCEYIDDAMGFDAELFERVINTNVISIGYCLQALLPKMKQKGHLALMGSSAAFVPFQRAEAYGASKAAIHYLAQSLQLDIPKERLTISVIAPGFVKTPLTDKNDFPMPMLIEPDKAADHIINGINNNKQHIHFPFPFTRFLILMGALPSCIWQWMALRMKRK,failed
9,MVGFKPTDVPPTAAVKFIGAGTAACIADLFTFPLDTAKVRLQIQGESKAVHMKTASYKGVFGTISTMVKMEGPKSLYNGLAAGLQRQMSFASVRIGLYDSVKQFYTKGSEHAGIGSRLAAGCTTGAMAVAVAQPTDVVKVRFQAQANSSANRRYKGTMDAYRTIAREEGMRGLWKGTVPNITRNAIVNCTELVTYDLIKDSILKANIMTDNLPCHFTSAFGAGFCTTVIASPVDVVKTRYMNSAKGQYTSALNCALTMFRKEGPRAFYKGFMPSFLRLGSWNVVMFVTYEQLKRAMMSAQRSREAPF,failed
10,MPSRKFADGEVVRGRWPGSSLYYEVEILSHDSTSQLYTVKYKDGTELELKENDIK,not failed
11,MRRLKRDPLERAFLRGYQNGITGKSRDLCPFTHPTTRQSWLNGWREGRGDNWDGLTGTAGLQRLNQLQHVLEHHHHHH,failed
12,REIADNTYIVLGTMTLNDFNEYFETDLESDNVDTIAGFYLTGVGTIPSQEEKEHFEVESNGKHLELINDKVKDGRVTKLKILVSE,not failed
13,MKKNYTYPFTAIVGQEEMKLALILNIINPAISGVLIRGEKGTAKSTAVRALADILPEIEVIAGIPFNLAPDEDDETIRECFTVTGHAMPDPDNLEVTMHKVQVVELPVGATEDRVVGTLDLEHALKTGEKRIEPGLLAAAHRGILYVDEVNLLDDHVVDVLLDSAAMGVNTIEREGVSFSHPARFTLVGTMNPEEGELRPQLLDRFGLCVHVGGIADPQDRVTVMERRFAFEQDQERFCSEWQGESSKLAERIVAARELYPSVTISREHLLGIAKSCLKVGVDGHRGDIIIMKTAKTIAAWEGRHCVGSDDIDRAVALALPHRIRRQPLQDMVMDVGSLLGSKCTTN,failed
14,MGLKNIVVFVEPSNAGATRARYAVELARRHGAHLIGIFVASSDGPIPANAYVRGRDAMRRLIELHDANAIETTSVASRNFNTATNSADITYEFRIIREIESDDTKLHCLHADLVIVGHPRPGGLPLYSSAEGLLLATGIPFLIVPDGWPSGAVAQRVLLAWNASREARRAITDSLPLLSAAQSVSIVVIDSAKNRLHGENPGADVAVYLSRHGAHVTTEQIDSNGSPIADVILQHAVHGGFDLIVLGAYSHARVREAVFGGVTRSLLKLATIPMLIAH,failed
15,MRRLLFLSLAGLWLFSPAAAAQLPGLISQPLAGGGQSWSLSVQTLVFITSLTFLPAILLMMTSFTRIIIVFGLLRNALGTPSAPPNQVLLGLALFLTFFIMSPVIDKIYVDAYQPFSEQKISMQEALDKGAQPLRAFMLRQTREADLALFARLANSGPLQGPEAVPMRILLPAYVTSELKTAFQIGFTIFIPFLIIDLVIASVLMALGMMMVPPATIALPFKLMLFVLVDGWQLLMGSLAQSFYS,failed
16,MDLLLKGGWVVTQERVEQADIAVEGEKIAAIGPDLEARAAAVRDVTGKYILPGAIDAHVHYQMPIGELLTADDWFTGTRLAACGGVTTVIDYAEPAGPAEPLTEALAKRLEEAREQACVDYGLHQVVLPGQEEDTGELAKVIEQGVTSFKVFTTYKQCLGYAAIGRLLKQARRLGALVTVHCEDHDLVTARRRELEATGQTDPAYHANSRPAAAEVKAIEKVIRQAAAAGAPVYIVHVSTGGGAELIAAARARGQQVFGETCPHYLLLTEERYAGPDSRLFLMCPPLRTVKDNRILWQHLASGDLQVVATDHCSYSPEQKAAGTAFYNTPSGVPGTETLLPLLYSYGVRQGRLTLPQMVRVLATNPARLFGLYPRKGCLAPGSDADLVVFDPSQEVILKASDLHSAAAYTIFEGFALQGYVEATYLRGRLIYDLGRFLGRAGQGEFIPGKITVL,failed
17,MAPTIRLPFRRTLALLASATILAQTGMSGIAFAQTSPETAVPGVAAPVPAAPTPPASTPQQTPPVQTVVPTNGPASVADLAEGLLDAVVNISTSQNVKDDEGVGPAPRAPDGSPFQEFFNDFFNKKQGNKGPNHNVSSLGSGFVIDPAGYIVTNNHVIEGADDIEVNFANGSKLKAKLIGTDTKTDLSVLKVEPKTPLKSVKFGDSSEMRIGDWVMAIGNPFGFGGSVTVGIISGRGRNINAGPYDNFIQTDAAINKGNSGGPLFNMKGEVIGINTAIISPSGGSIGIGFSVPSELASGVVEQLRQYGETRRGWLGVRIQPVTDDIADSLGLDTAKGALVAGVIKGGPVDDGSIKAGDVILKFDGKTVNEMRDLPRVVAESTVGKEVDVVVLRDGKEQTVKVKLGRLEDSDQAASGDASPDGSQDGVITPDPDENDDMDQPDTGDQVAPAPGAPAPDQHQQGQVSPDAATPKNVLGLSLSLLSPETRKAFGIAESVDGVVVTEVEPGSASAEKGLKPGDVIVEVAQEFMKSPDAVAAKVKSLKQEGRRNAQLMIASANGDLRFVAVPME,failed
18,MTLTSGDKQGNTPGQASDTERWASLIGGGALVLLGLRQASLRGVLTALAGGGLIYQGATKQSTIQQAQEAIGINKPIKVEKTVTINKPADELYRYWHNFENLPTFMKHLKSVKVYNEKRSHWIANAPLGNSVEWDADILEDRENEFISWASAEGADVENSGFVRFQKAPGDVPGQAASRLRGTEVKVVLEYNLPGGALAAVVAKLFGEEPEQQIGDELRRFKMLMEAGEIATTEGQPSGRK,failed
19,MDMKKYILSLSLLTVINSSAIATTQEGEEAYNKGYYEKAFILLSPEADKGDAKAQYLLGKMYYNAQGVTYNPEKTEQLLLASANQGNVDAQVLLAGFYWYLNTPEGYKKAFEWYQKAADQNNADGQYGLGYMYDTGTGVPQNSDTAMVWYKKAAEQGNSNAALAIGYNYDTGTGVKKDKTQALNWYAKAADLGNASAQYNLGLMYEQGDGVPKDYQKAAEYFEKAANQGHAKSQLELGYLYDSGKLGKSDLQKAAFWYQKSADLGNANAQFNLADMYFYGDGVGKSLEQSVYWMQKAAEQGYGKAQNQLGIYYRDGIGVAADPVKAYAWFTAAKNNGFEKAASNASDLEKSMNPEDLSKARILGQQYTDNYKAKK,failed
